In the nanobody polyreactivity screen of Harvey et al. (2022):

Experiment: yeast display, Sf9 membrane polyspecificity reagent, FACS + sequencing; frameworks hold sequencing errors
In short: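 A synthetic nanobody library was expressed on Saccharomyces cerevisiae BJ5465 by galactose induction for 36–48 hours. The library was stained for 1 hour at 4 °C with 10% biotinylated, detergent-solubilized Sf9 membrane reagent and enriched with streptavidin microbeads before FACS. Low and high (top ~1%) gates were set on anti-HA fluorescence for expression and streptavidin fluorescence for reagent binding, and each polyreactivity label reflects the gate of origin.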

Row | Sequence | polyreactivity (PSR sort gate)
1 | QVQLVESGGGLVQAGGSLRLSCAASGRIFRYYAMGWYRQAPGKERELVASIARRGGSTNYADSVKGRFTISRDNAKNTVYVQMNSLKPEDTAVYYINAENWSPRGLYNYWGQGTQVTLSS | high polyreactivity
2 | QVQLVESGGGLVQAGGSLRLTCAASGYTFRAYVMGWYRQAPGKERELVAGITRRGGTTYYADSVKGRFTISRYNAKNTVYLQMNSLKPEDTAVYYCNAVYRSGSIPYDSWGQGTQVTVSS | high polyreactivity
3 | QVQLVESGGGLVQAGGSLRLSCAASGSILLTNTMGWYRQAPGKERELVADINSGASTNYADSVKGRFTISRDNAKNTVYLQMNSLKPEDTAVYYCAADTKGGTYEYDYWGQGTKVTVSS | low polyreactivity
4 | QVQLVESGGGLVQAGGSLRLSCAASGSIFVIYAMGWYRQAPGKERELVAAITDSATTNYADSVKGRFTISRDNAKNTVYLQMNSLKPEDTAVYYCAAEYSSYPTAWSTYEFDYWGQGTQVTVSS | low polyreactivity
5 | QGQRVESGGGLVQAGGSLRLSCAGSGSTCVGYTMGWYRQAPGKERELVAAITSSDGSTYYADSVKGRFTISRDNAKNTVYLQMNSQKPEDTAVYYCAQTTRYPRGYGYWGQGTQVTVSS | low polyreactivity
6 | QVQLVESGGGLVQAGGSLRLSCAASGFNFGYYAMGWYRQAPGKERELVAAITSRGGSTYYADSVKGRFTISRDNAKNTDYLQMNSLKPEDTAVYYLAAYSQYLKRDYWGQGTQVTVSS | high polyreactivity
7 | QVQLVESGGGIVQAGGSLRLSCAASGRTSVVNAMGWYRQAPGKERELVAAITSGGSTHYADSVKGRFTISRDNAKNTVYLQINSLKPEDTAVYYCNARDRRRTNLLDYWGQGSQVTVSS | low polyreactivity
8 | QVQLVESGGGLVQAGGSLRLSCAASGRIFGYTMGWYRQAPGKERELVAAISKSGGSTYYADSVKGRFTISRDNAKNTVYLQMNSLKPEDTAVYYCNKPQRILYDYWGQGTQVTVSS | high polyreactivity
9 | QVQLVESGGGLVQAGGRLRLSCAASGRTFGVYVMGWYRQAPGKERELVAAISSSGGLTYYADSVKGRFTISRDNAKNTVYLQMNSMKPEDTAVYYCNAVRRREERDGPPNPMDYWGQGTQVTVSS | high polyreactivity
10 | QVQLVESGGGLVQAGGSLRLSCAASGYIFRLYAMGWYRQAPGKERELVATITASGGTYYADSVKGRFTISRDNAKNTVYLQMNSLKPEDTAVYYCAAAKLRRLSRVRYGYWGQGTQVTVSS | high polyreactivity
11 | QVQLVESCGGLVQAGGSLRLICAASGRTFYHNAMGWYRQAPGKERELVATINSGGSTYAESVKGRFTISRDNAKNTVYFQMNSLKPEDTAVYYCAATFWSRSRFYYRYDYWGQGTQVTVSS | high polyreactivity
12 | QVQLVESGGGLVQAGGSLRLSCSASGSIFSYYTMGWYRQAPGKERELVAAITGSGGRTYYADSVKGRFTISRDNAKNTVYLQMNSLKPEDTAVYYCNADRHYVPYYSRPRYIPYDYWGQGTQVTVSS | high polyreactivity
13 | QVQHVESGGGLVQAGGSLRLSCAASGIIFRENALGWDRQAPGKERELVAGISSGGNTNYADSGKGRFTISRDNAKNPVYLQMNSLNPEDTAVYYCNTDWYLPRYVLLGYFSGTEDYWGQGTQVTLSS | low polyreactivity
14 | QVQLVESGGGLVQAGGSLRLTCAASGSTFYSYTMGWYRQAPGKERELVAVISSSGGRTYYADSVKGRFTISRDNAKNTVYFQMNSLKPEDTAVYYCAASQRGYFDYRLWSFRSDSWGQGTQVTVSS | high polyreactivity
15 | QVQLVESGGGLVQAGGSLRLSCAASGLTFFTYVMGWYRQAPGKERELVASISERGGSTFYADSVKGRFTISRDNAKNTVYLQMNSLKPEDTAVYYCATVSQSFKYRYRWRAAASDYWGQGTQVTVSS | high polyreactivity
16 | QVQLVESGGGLVQAGGSLRLSCAASGRIFNQYGMGWYRQAPGKERELVASITLTDGSTYYADSVKGRFTISRDNAKNTVYLQMNSLKPEDTAVYYCAARISGGSTFRYQRMYYWGQGTQVTVSS | low polyreactivity
17 | QVQLVESGGGLVQAGGSLRLSCDASGFIFGRNAMGWYRQAPGKERELVAGISSSGFRTFYADSVKGRFTISRDNAKNTDYLQMNSLKQEDTAVYYCAAEIRYYKYGSYYYWGKGTQVTVSS | high polyreactivity
